Experimental data published in PMC3592467 (Nucleic Acids Research, 2012).

T1: MBD3-GFP (UniProt O95983 1-291)
T1 sequence: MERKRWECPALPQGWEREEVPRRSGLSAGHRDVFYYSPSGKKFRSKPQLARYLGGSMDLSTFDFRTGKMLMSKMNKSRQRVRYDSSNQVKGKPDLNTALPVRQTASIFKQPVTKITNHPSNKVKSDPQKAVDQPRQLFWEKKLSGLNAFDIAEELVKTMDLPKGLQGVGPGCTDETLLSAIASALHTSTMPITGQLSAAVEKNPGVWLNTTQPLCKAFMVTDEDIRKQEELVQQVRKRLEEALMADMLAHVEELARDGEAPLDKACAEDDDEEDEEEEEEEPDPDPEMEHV


Target: T1, MBD3-GFP
Test: affinity purification with mass spectrometry

Row | Binder | stoichiometry N
1 | ZNF592 (natural protein) MGDMKTPDFDDLLAAFDIPDPTSLDAKEAIQTPSEENESPLKPPGICMDESVSLSHSGSAPDVPAVSVIVKNTSRQESFEAEKDHITPSLLHNGFRGSDLPPDPHNCGKFDSTFMNGDSARSFPGKLEPPKSEPLPTFNQFSPISSPEPEDPIKDNGFGIKPKHSDSYFPPPLGCGAVGGPVLEALAKFPVPELHMFDHFCKKEPKPEPLPLGSQQEHEQSGQNTVEPHKDPDATRFFGEALEFNSHPSNSIGESKGLARELGTCSSVPPRQRLKPAHSKLSSCVAALVALQAKRVASVTKEDQPGHTKDLSGPTKESSKGSPKMPKSPKSPRSPLEATRKSIKPSDSPRSICSDSSSKGSPSVAASSPPAIPKVRIKTIKTSSGEIKRTVTRILPDPDDPSKSPVGSPLGSAIAEAPSEMPGDEVPVEEHFPEAGTNSGSPQGARKGDESMTKASDSSSPSCSSGPRVPKGAAPGSQTGKKQQSTALQASTLAPANLLPKAVHLANLNLVPHSVAASVTAKSSVQRRSQPQLTQMSVPLVHQVKKAAPLIVEVFNKVLHSSNPVPLYAPNLSPPADSRIHVPASGYCCLECGDAFALEKSLSQHYGRRSVHIEVLCTLCSKTLLFFNKCSLLRHARDHKSKGLVMQCSQLLVKPISADQMFVSAPVNSTAPAAPAPSSSPKHGLTSGSASPPPPALPLYPDPVRLIRYSIKCLECHKQMRDYMVLAAHFQRTTEETEGLTCQVCQMLLPNQCSFCAHQRIHAHKSPYCCPECGVLCRSAYFQTHVKENCLHYARKVGYRCIHCGVVHLTLALLKSHIQERHCQVFHKCAFCPMAFKTASSTADHSATQHPTQPHRPSQLIYKCSCEMVFNKKRHIQQHFYQNVSKTQVGVFKCPECPLLFVQKPELMQHVKSTHGVPRNVDELSSLQSSADTSSSRPGSRVPTEPPATSVAARSSSLPSGRWGRPEAHRRVEARPRLRNTGWTCQECQEWVPDRESYVSHMKKSHGRTLKRYPCRQCEQSFHTPNSLRKHIRNNHDTVKKFYTCGYCTEDSPSFPRPSLLESHISLMHGIRNPDLSQTSKVKPPGGHSPQVNHLKRPVSGVGDAPGTSNGATVSSTKRHKSLFQCAKCSFATDSGLEFQSHIPQHQVDSSTAQCLLCGLCYTSASSLSRHLFIVHKVRDQEEEEEEEAAAAEMAVEVAEPEEGSGEEVPMETRENGLEECAGEPLSADPEARRLLGPAPEDDGGHNDHSQPQASQDQDSHTLSPQV | ~0.01 relative to MBD3
2 | ZMYND8 (natural protein) MDISTRSKDPGSAERTAQKRKFPSPPHSSNGHSPQDTSTSPIKKKKKPGLLNSNNKEQSELRHGPFYYMKQPLTTDPVDVVPQDGRNDFYCWVCHREGQVLCCELCPRVYHAKCLRLTSEPEGDWFCPECEKITVAECIETQSKAMTMLTIEQLSYLLKFAIQKMKQPGTDAFQKPVPLEQHPDYAEYIFHPMDLCTLEKNAKKKMYGCTEAFLADAKWILHNCIIYNGGNHKLTQIAKVVIKICEHEMNEIEVCPECYLAACQKRDNWFCEPCSNPHPLVWAKLKGFPFWPAKALRDKDGQVDARFFGQHDRAWVPINNCYLMSKEIPFSVKKTKSIFNSAMQEMEVYVENIRRKFGVFNYSPFRTPYTPNSQYQMLLDPTNPSAGTAKIDKQEKVKLNFDMTASPKILMSKPVLSGGTGRRISLSDMPRSPMSTNSSVHTGSDVEQDAEKKATSSHFSASEESMDFLDKSTASPASTKTGQAGSLSGSPKPFSPQLSAPITTKTDKTSTTGSILNLNLDRSKAEMDLKELSESVQQQSTPVPLISPKRQIRSRFQLNLDKTIESCKAQLGINEISEDVYTAVEHSDSEDSEKSDSSDSEYISDDEQKSKNEPEDTEDKEGCQMDKEPSAVKKKPKPTNPVEIKEELKSTSPASEKADPGAVKDKASPEPEKDFSEKAKPSPHPIKDKLKGKDETDSPTVHLGLDSDSESELVIDLGEDHSGREGRKNKKEPKEPSPKQDVVGKTPPSTTVGSHSPPETPVLTRSSAQTSAAGATATTSTSSTVTVTAPAPAATGSPVKKQRPLLPKETAPAVQRVVWNSSSKFQTSSQKWHMQKMQRQQQQQQQQNQQQQPQSSQGTRYQTRQAVKAVQQKEITQSPSTSTITLVTSTQSSPLVTSSGSMSTLVSSVNADLPIATASADVAADIAKYTSKMMDAIKGTMTEIYNDLSKNTTGSTIAEIRRLRIEIEKLQWLHQQELSEMKHNLELTMAEMRQSLEQERDRLIAEVKKQLELEKQQAVDETKKKQWCANCKKEAIFYCCWNTSYCDYPCQQAHWPEHMKSCTQSATAPQQEADAEVNTETLNKSSQGSSSSTQSAPSETASASKEKETSAEKSKESGSTLDLSGSRETPSSILLGSNQGSDHSRSNKSSWSSSDEKRGSTRSDHNTSTSTKSLLPKESRLDTFWD | ~0.01 relative to MBD3
